Patent publication US20110097715, “METHOD FOR PURIFYING OR DETECTING A TARGET PROTEIN” (LFB - BIOTECHNOLOGIES, published 2011)

Legend:
[1] = target: rabbit plasma-derived factor VII (Oryctolagus cuniculus, UniProt P98139 P98139:40-444); test: SPR; complete absence of binding at 50-400 nM; same buffer (CaCl2 2 mM); conditions: tags: American Diagnostica; label: 3'-biotin
Excerpt: (§1) This aptamer is modified at the 3′-end thereof by grafting a biotin. Nucleotide bases in bold (SEQ no 1) are 2′O-methylated, which makes it possible to stabilize the aptamer by making it more resistant to nucleases. The aptamer was then immobilized onto an avidin-containing SA chip (Biacore GE). The aptamer was thus immobilized in an oriented manner through the 3′-end thereof with an immobilization rate of 2700 RU (where 1 RU does approximately correspond to 1 pg of immobilized product per mm²).
Rabbit plasma-derived factor VII (American Diagnostica) was diluted in the same buffer as in Example 1 at concentration levels of 50, 100 200, 400 nM, thereafter was injected under the same conditions as in Example 1 into the same chip containing the immobilized aptamer.

[2] = target: human plasma-derived factor VII (HP FVII) (Homo sapiens, UniProt P08709 P08709:61-466); test: SPR; Hepes 20 mM pH 8, NaCl 50 mM, CaCl2 2 mM, BSA 0.01%; aptamer immobilized via 3'-biotin on SA chip; allosteric binding model; FVII 50-400 nM; conditions: tags: plasma-derived, purity 99%; label: 3'-biotin
Chain of human plasma-derived factor VII (HP FVII) (P08709 61-466, one chain of several): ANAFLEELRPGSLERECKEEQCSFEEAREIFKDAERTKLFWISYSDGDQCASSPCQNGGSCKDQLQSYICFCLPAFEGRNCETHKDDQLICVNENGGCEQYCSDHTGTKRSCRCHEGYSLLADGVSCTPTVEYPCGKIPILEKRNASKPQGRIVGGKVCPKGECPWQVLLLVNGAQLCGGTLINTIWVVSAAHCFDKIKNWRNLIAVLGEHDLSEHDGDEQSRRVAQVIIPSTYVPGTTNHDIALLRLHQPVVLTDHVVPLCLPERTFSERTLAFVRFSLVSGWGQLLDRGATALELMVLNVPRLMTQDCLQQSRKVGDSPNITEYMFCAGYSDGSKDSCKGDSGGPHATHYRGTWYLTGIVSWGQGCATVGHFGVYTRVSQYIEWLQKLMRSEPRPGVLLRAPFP
Excerpt: as §1
Some purified, human plasma-derived factor VII (HP FVII, purity: 99%) was diluted in run buffer (Hepes 20 mM pH=8, NaCl 50 mM, CaCl₂ 2 mM and BSA 0.01%) so as to obtain four samples with human plasma-derived factor VII concentration levels of 50, 100, 200 and 400 nM. Each sample was injected sequentially into the same immobilized aptamer-containing chip through a biotin-streptavidin interaction. Controls are obtained by injecting blanks which only contained the run buffer. All injections are performed at a flow rate of 20 μl/min for 120 sec, after injection of the run buffer into the chip at the same flow rate for 240 sec. […] A binding to the immobilized aptamer generates a signal increase expressed in resonance unit (RU) recorded by the device (FIG. 1). […] The modelling of the recorded interactions was made by means of the Biaevaluation software (GE).

Chain of rabbit plasma-derived factor VII (P98139 40-444, one chain of several): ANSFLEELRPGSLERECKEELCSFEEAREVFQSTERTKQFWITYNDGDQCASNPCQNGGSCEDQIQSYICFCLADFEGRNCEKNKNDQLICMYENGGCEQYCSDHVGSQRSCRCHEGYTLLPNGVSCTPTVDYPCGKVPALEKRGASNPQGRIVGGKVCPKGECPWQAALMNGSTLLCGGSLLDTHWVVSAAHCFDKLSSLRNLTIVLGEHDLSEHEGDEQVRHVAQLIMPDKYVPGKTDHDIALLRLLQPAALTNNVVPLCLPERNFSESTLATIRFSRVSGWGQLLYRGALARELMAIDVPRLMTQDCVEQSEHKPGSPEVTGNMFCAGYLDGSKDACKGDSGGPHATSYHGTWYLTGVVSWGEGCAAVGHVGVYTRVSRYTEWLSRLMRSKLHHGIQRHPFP

B1: anti-human FVII aptamer (SEQ no 1) (ssRNA)
RNA: GGGAGAGAGGAAGAGGGAUGGGAGCCUAUGUAACAGAUGCAGAUCCCUAGUCGUCCCAACACCAUAAC
modifications: 2'-OMe at bases shown in bold in the patent (positions not recoverable from text); 3'-biotin
In the case of B1, the binding result [1] is reported as “no binding” and the Kd [2] is reported as 1.4 µM.
